Source: PMC10656488 (2023)

Molecular target: HSPA5 protein (wild type, in vitro systems, ITC and SPR) (UniProt P20029 20-655)
Experiment: ITC

Chain of HSPA5 protein (wild type, in vitro systems, ITC and SPR) (P20029 20-655): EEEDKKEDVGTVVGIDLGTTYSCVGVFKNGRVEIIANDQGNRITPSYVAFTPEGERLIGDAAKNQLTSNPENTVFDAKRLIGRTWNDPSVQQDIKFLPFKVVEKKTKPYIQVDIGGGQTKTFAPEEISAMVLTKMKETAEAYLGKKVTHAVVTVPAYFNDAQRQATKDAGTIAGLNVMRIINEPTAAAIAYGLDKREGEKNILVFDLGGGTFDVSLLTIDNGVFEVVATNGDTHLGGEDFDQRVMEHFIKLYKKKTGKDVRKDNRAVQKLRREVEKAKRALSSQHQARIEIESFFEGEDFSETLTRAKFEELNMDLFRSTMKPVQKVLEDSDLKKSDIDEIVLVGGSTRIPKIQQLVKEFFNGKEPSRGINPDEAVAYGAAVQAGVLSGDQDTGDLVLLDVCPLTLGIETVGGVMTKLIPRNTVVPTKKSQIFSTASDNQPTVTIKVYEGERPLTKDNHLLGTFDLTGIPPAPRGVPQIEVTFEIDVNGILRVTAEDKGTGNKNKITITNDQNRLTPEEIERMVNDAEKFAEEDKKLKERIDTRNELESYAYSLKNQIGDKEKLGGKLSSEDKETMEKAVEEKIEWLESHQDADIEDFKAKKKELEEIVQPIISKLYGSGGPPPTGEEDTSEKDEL

| Binder | Kd [nM] |
| --- | --- |
| SCNN1B protein (in vitro ubiquitination system, ITC and SPR) (natural protein) MPVKKYLLKCLHRLQKGPGYTYKELLVWYCNNTNTHGPKRIICEGPKKKAMWFLLTLLFACLVCWQWGVFIQTYLSWEVSVSLSMGFKTMNFPAVTVCNSSPFQYSKVKHLLKDLDELMEAVLEKILAPEASHSNTTRTLNFTIWNHTPLVLIDERNPDHPVVLNLFGDSHNSSNPAPGSTCNAQGCKVAMRLCSANGTVCTLRNFTSATQAVTEWYILQATNIFSQVLPQDLVGMGYAPDRIILACLFGTEPCSHRNFTPIFYPDYGNCYIFNWGMTEETLPSANPGTEFGLKLILDIGQEDYVPFLASTAGARLMLHEQRTYPFIREEGIYAMAGTETSIGVLVDKLQRKGEPYSPCTMNGSDVAIKNLYSVYNTTYSIQACLHSCFQDHMIRNCSCGHYLYPLPEGEKYCNNRDFPDWAYCYLNLQMSVTQRETCLSMCKESCNDTQYKMTISMADWPSEASEDWILHVLSQERDQSSNITLSRKGIVKLNIYFQEFNYRTIEESPANNIVWLLSNLGGQFGFWMGGSVLCLIEFGEIIIDFIWITIIKLVASCKGLRRRRPQAPYTGPPPTVAELVEAHTNFGFQPDTTSCRPHGEVYPDQQTLPIPGTPPPNYDSLRLQPLDTMESDSEVEAI | 860 |
| ATAT1 protein (in vitro acetylation system, ITC and SPR) (enzyme) MEFPFDVDALFPERITVLDQHLRPPARRPGTTTPARVDLQQQIMTIVDELGKASAKAQHLPAPITSALRMQSNRHVIYILKDTSARPAGKGAIIGFLKVGYKKLFVLDDREAHNEVEPLCILDFYIHESVQRHGHGRELFQHMLQKERVEPHQLAIDRPSPKLLKFLNKHYNLETTVPQVNNFVIFEGFFAHQHRPPTSSLRATRHSRAAVADPIPAAPARKLPPKRAEGDIKPYSSSDREFLKVAVEPPWPLNRAPRRATPPAHPPPRSSSLGNSPDRGPLRPFVPEQELLRSLRLCPPHPTARLLLATDPGGSPAQRRRTRGTPWGLVAQSCHYSRHGGFNTSFLGTGNQERKQGEQEAEDRSASEDRVLLLDGSGEEPTQTGAPRAQAPPPQSWTVGGDIMNARVIRNLQERRSTRPW | 110 |
